Results taken from US20220144932A1.

Columns and labels:
[1] = biological target: Recombinant FAM19A5 rabbit Fc fusion protein (human; rabbit) (UniProt Q7Z5A7); assay: flow cytometry, blocking: FAM19A5-rFc (1 µM) with scFv-Cκ (5 µM) on mouse primary glial cells; blocked: binding of FAM19A5-rFc to the cells
[2] = biological target: Recombinant FAM19A5 rabbit Fc fusion protein (human; rabbit) (UniProt Q7Z5A7); assay: flow cytometry, blocking: FAM19A5-rFc (1 µM) with scFv-Cκ (5 µM) on human glioblastoma cell line U87MG; blocked: binding of FAM19A5-rFc to the cells

B1: 2-13 anti-FAM19A5 scFv human Cκ fusion protein (scFv, not shown: a dimerising Fc or GST)
scFv: ALTQPSSVSANPGETVKITCSGGSYSYGWFQQKSPGSALVTVIYWDDERPSDIPSRFSGALSGSTNTLTITGVQADDEAVYFCGTEDISGTAGVFGAGTTLTVLGQSSRSSGGGGSSGGGGSAVTLDESGGGLQTPGGALSLVCKASGFTFSSHGMFWVRQTPGKGLEYVAEITNDGSGTNYGSAVKGRATISRDNGQSTVRLQLNNLRAEDTGTYFCARSTYECPGGFSCWGDTGQIDAWGHGTEVIVSS
[1]
  percent reduction of MFI: 88.9%
[2]
  percent reduction of MFI: 69.6%
